Results taken from patent US20250197488A1 (MABWELL SHANGHAI BIOSCIENCE, published 2025).

Assays:
[1] = target: T1, IL-11 (Cat. 12225-HNCE, Sino Biological Inc.) (UniProt P20809 22-199, limits assumed); experiment: competition ELISA, IL-11/IL-11Rα/GP130 complex
T1 sequence (looked up): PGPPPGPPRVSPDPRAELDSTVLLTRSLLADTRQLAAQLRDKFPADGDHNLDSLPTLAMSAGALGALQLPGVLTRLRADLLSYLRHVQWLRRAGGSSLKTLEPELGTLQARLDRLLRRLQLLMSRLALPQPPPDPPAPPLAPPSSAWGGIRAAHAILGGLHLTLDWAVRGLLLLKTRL
Procedure: The activity of the recombinant murine anti-IL-11 antibodies for blocking the formation of IL-11/IL-11Rα/GP130 complex was analyzed via competition ELISA. IL-11Rα-His (NP_004503.1, Met1-Val363, C-terminus-6-His Tag) was firstly added into ELISA plates to be coated overnight. Next day, samples were prepared as follows. […] After co-incubating and washing, an HRP conjugated anti-human Fc secondary antibody was added to develop the color which was then detected.
(§1) Then, light and heavy chain expression vectors for preparing mutant antibodies were constructed according to the method for preparing the recombinant antibodies provided in Example 4, using the mutant sequences shown in Table 3 which accordingly were linked with human IgG1 constant regions (SEQ ID NO. 13, and SEQ ID NO.14). Subsequently, the light chain and the heavy chain were reasonably matched and co-transfected into eukaryotic cells for transient expression, and then recombination protein samples of the mutant antibodies were obtained through affinity purification. The samples obtained were tested for affinity on Fortebio Octet, according to the method for measuring affinity provided in Example 1. Further, using the protocol provided in Example 3, hz8C8 and its affinity matured mutants were analyzed for their activity for blocking the formation of IL-11/IL-11Rα/GP130 complex.

[2] = target: T1, IL-11 (Cat. 12225-HNCE, Sino Biological …); experiment: cell-based or functional assay
[3] = target: T2, human IL-11 (AAH12506.1, Pro22-Leu199) (human, UniProt P20809 22-199); experiment: BLI (Octet), antibody captured, human IL-11 in solution
T2 construct: The range Pro22-Leu199 counts on AAH12506.1; The Octet runs say only 'human IL-11'; also called hIL-11
T2 chain: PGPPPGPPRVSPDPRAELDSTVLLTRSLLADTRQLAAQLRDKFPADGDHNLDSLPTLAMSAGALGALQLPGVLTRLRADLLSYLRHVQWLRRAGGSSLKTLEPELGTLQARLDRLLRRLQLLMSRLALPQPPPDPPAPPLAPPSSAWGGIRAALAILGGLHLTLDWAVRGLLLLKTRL
Procedure: The affinity of the murine antibodies purified from the hybridoma supernatants was determined using an Octet QKe System instrument from Fortebio Inc. with an anti-mouse IgG Fc Capture biosensor to capture the Fc fragments of the antibodies, for which an anti-IL-11 antibody named “3C6-mFc” recombinantly expressed was used at the same concentration as a positive control. Specifically, a hybridoma supernatant was diluted with HBS-EP+ buffer (GE), and was allowed to pass through the surface of AMC probes (Cat: 18-5088, PALL), and so the antibody in the hybridoma supernatant was captured on the surface of the probes; then, human IL-11 diluted in the HBS-EP+ buffer (300 nM) was used as a mobile phase to react with the antibody captured on the surface of the probes. Both the binding and the dissociating were conducted for 300 seconds. When the experiment was finished, data from which response values of blank controls had been deducted was fitted using a 1:1 Langmuir binding model by software, and then kinetic constants for antigen-antibody binding were calculated. Binding signals were detected on the Octet QKe System instrument with Hy5C2, Hy8C8, Hy16B5, Hy18A10, and Hy18H10.
The affinity of hz18A10 and hz8C8 was determined according to the method provided in Example 1 using AHC bioprobes for capturing human Fc fragment instead, with other conditions unchanged. A recombinantly expressed anti-IL-11 antibody 3C6-hFc was used at the same concentration as a positive control.
as §1, with “1.” for “1. Further, using the protocol provided in Example 3, hz8C8 and its affinity matured mutants were analyzed for their activity for blocking the formation of IL-11/IL-11Rα/GP130 complex.”

Binder | IC50 [1] | Blocking activity (IC50), STAT3-luc reporter [2] | Kd [3] | koff [3] | kon [3]
hz8C8-VHm1-m6 + hz8C8-VLm7-m2 (antibody, human IgG1, kappa, V domains shown, human IgG1 constant regions) VH: EVQLVESGGGLVQPGGSLRLSCAASGFTFSSFGMHWVRQAPGKGLEWVAVITPGSNTIYYADTVKGRFTISRDNAKNSLYLQMNSLRAEDTAVYYCAREYYSYDEGFAYWGQGTLVTVSS VL: EIVLTQSPATLSLSPGERATLSCSVSDLIPSQYLHWYQQKPGQAPRLLIYDASNLASGIPARFSGSGSGTDFTLTISSLEPEDFAVYYCQQGVDVPFTFGQGTKLEIKR | 1.71 µg/mL | 0.034 µg/mL | 2.07 nM | 0.00135 s⁻¹ | 653000 M⁻¹ s⁻¹
hz8C8-VHm1-m7 + hz8C8-VLm7-m2 (antibody, human IgG1, kappa, V domains shown, human IgG1 constant regions) VH: EVQLVESGGGLVQPGGSLRLSCAASGFTFSSFGMHWVRQAPGKGLEWVSVITPGSNTIYYADTVKGRFTISRDNAKNSLYLQMNSLRAEDTAVYYCAREYYSYDEGFAYWGQGTLVTVSS VL: EIVLTQSPATLSLSPGERATLSCSVSDLIPSQYLHWYQQKPGQAPRLLIYDASNLASGIPARFSGSGSGTDFTLTISSLEPEDFAVYYCQQGVDVPFTFGQGTKLEIKR | 2.14 µg/mL | 0.027 µg/mL | 1.87 nM | 0.00111 s⁻¹ | 595000 M⁻¹ s⁻¹
hz8C8-VHm1-m8 + hz8C8-VLm7-m2 (antibody, human IgG1, kappa, V domains shown, human IgG1 constant regions) VH: EVQLVESGGGLVQPGGSLRLSCAASGFTFSSFGMHWVRQAPGKGLEWIGYITPGSNTIYYADTVKGRFTISRDNAKNSLYLQMNSLRAEDTAVYYCAREYYSYDEGFAYWGQGTLVTVSS VL: EIVLTQSPATLSLSPGERATLSCSVSDLIPSQYLHWYQQKPGQAPRLLIYDASNLASGIPARFSGSGSGTDFTLTISSLEPEDFAVYYCQQGVDVPFTFGQGTKLEIKR | 0.57 µg/mL | 0.003 µg/mL | < 0.001 nM | < 1e-07 s⁻¹ | 847000 M⁻¹ s⁻¹
hz8C8-VHm1-m9 + hz8C8-VLm7-m2 (antibody, human IgG1, kappa, V domains shown, human IgG1 constant regions) VH: EVQLVESGGGLVQPGGSLRLSCAASGFTFSSFGMHWVRQAPGKGLEWMGYITPGSNTIYYADTVKGRFTISRDNAKNSLYLQMNSLRAEDTAVYYCAREYYSYDEGFAYWGQGTLVTVSS VL: EIVLTQSPATLSLSPGERATLSCSVSDLIPSQYLHWYQQKPGQAPRLLIYDASNLASGIPARFSGSGSGTDFTLTISSLEPEDFAVYYCQQGVDVPFTFGQGTKLEIKR | 0.77 µg/mL | 0.002 µg/mL | 0.0239 nM | 2.14e-05 s⁻¹ | 897000 M⁻¹ s⁻¹
hz8C8-VHm1-m10 + hz8C8-VLm7-m2 (antibody, human IgG1, kappa, V domains shown, human IgG1 constant regions) VH: EVQLVESGGGLVQPGGSLRLSCAASGFTFSSFGMHWVRQAPGKGLEWVAYITPGSNTIYYADTVKGRFTISRDNAKNSLYLQMNSLRAEDTAVYYCAREYYSSDEGFAYWGQGTLVTVSS VL: EIVLTQSPATLSLSPGERATLSCSVSDLIPSQYLHWYQQKPGQAPRLLIYDASNLASGIPARFSGSGSGTDFTLTISSLEPEDFAVYYCQQGVDVPFTFGQGTKLEIKR | 1.57 µg/mL | 0.008 µg/mL | 1.39 nM | 0.000305 s⁻¹ | 219000 M⁻¹ s⁻¹
hz8C8-VHm1-m11 + hz8C8-VLm7-m2 (antibody, human IgG1, kappa, V domains shown, human IgG1 constant regions) VH: EVQLVESGGGLVQPGGSLRLSCAASGFTFSSFGMHWVRQAPGKGLEWVAYITPGSNTIYYADTVKGRFTISRDNAKNSLYLQMNSLRAEDTAVYYCAREYYSYDEGPAYWGQGTLVTVSS VL: EIVLTQSPATLSLSPGERATLSCSVSDLIPSQYLHWYQQKPGQAPRLLIYDASNLASGIPARFSGSGSGTDFTLTISSLEPEDFAVYYCQQGVDVPFTFGQGTKLEIKR | 1.7 µg/mL | 0.01 µg/mL | 1.3 nM | 0.001 s⁻¹ | 771000 M⁻¹ s⁻¹
hz8C8-VHm1-m12 + hz8C8-VLm7-m2 (antibody, human IgG1, kappa, V domains shown, human IgG1 constant regions) VH: EVQLVESGGGLVQPGGSLRLSCAASGFTFSSFGMHWVRQAPGKGLEWVAYITPGSNTIYYADTVKGRFTISRDNAKNSLYLQMNSLRAEDTAVYYCAREYYSYDEGGAYWGQGTLVTVSS VL: EIVLTQSPATLSLSPGERATLSCSVSDLIPSQYLHWYQQKPGQAPRLLIYDASNLASGIPARFSGSGSGTDFTLTISSLEPEDFAVYYCQQGVDVPFTFGQGTKLEIKR | 1.54 µg/mL | 0.012 µg/mL | 7.95 nM | 0.00139 s⁻¹ | 175000 M⁻¹ s⁻¹
hz8C8-VHm1-m13 + hz8C8-VLm7-m2 (antibody, human IgG1, kappa, V domains shown, human IgG1 constant regions) VH: EVQLVESGGGLVQPGGSLRLSCAASGFTFSSFGMHWVRQAPGKGLEWVAYITPGSNTIYYADTVKGRFTISRDNAKNSLYLQMNSLRAEDTAVYYCAREYYSYDEGFASWGQGTLVTVSS VL: EIVLTQSPATLSLSPGERATLSCSVSDLIPSQYLHWYQQKPGQAPRLLIYDASNLASGIPARFSGSGSGTDFTLTISSLEPEDFAVYYCQQGVDVPFTFGQGTKLEIKR | 0.54 µg/mL | 0.008 µg/mL | 0.0573 nM | 4.32e-05 s⁻¹ | 753000 M⁻¹ s⁻¹
hz8C8-VHm2 + hz8C8-VL (antibody, human IgG1, kappa, V domains shown, human IgG1 constant regions) VH: EVQLVESGGGLVQPGGSLRLSCAASGFTFSSFGMHWVRQAPGKGLEWVAYITAGSNTIYYADTVKGRFTISRDNAKNSLYLQMNSLRAEDTAVYYCAREYYSYDEGFAYWGQGTLVTVSS VL: EIVLTQSPATLSLSPGERATLSCSVSSSISSNYLHWYQQKPGQAPRLLIYRTSNLASGIPARFSGSGSGTDFTLTISSLEPEDFAVYYCQQGVDVPFTFGQGTKLEIKR | 0.694 µg/mL | 0.51 µg/mL | 0.727 nM | 0.000586 s⁻¹ | 806000 M⁻¹ s⁻¹
hz8C8-VHm3 + hz8C8-VL (antibody, human IgG1, kappa, V domains shown, human IgG1 constant regions) VH: EVQLVESGGGLVQPGGSLRLSCAASGFTFSSFGMHWVRQAPGKGLEWVAYITPGSNTTYYADTVKGRFTISRDNAKNSLYLQMNSLRAEDTAVYYCAREYYSYDEGFAYWGQGTLVTVSS VL: EIVLTQSPATLSLSPGERATLSCSVSSSISSNYLHWYQQKPGQAPRLLIYRTSNLASGIPARFSGSGSGTDFTLTISSLEPEDFAVYYCQQGVDVPFTFGQGTKLEIKR | 0.828 µg/mL | 0.946 µg/mL | 4.77 nM | 0.00216 s⁻¹ | 453000 M⁻¹ s⁻¹
hz8C8-VHm4 + hz8C8-VL (antibody, human IgG1, kappa, V domains shown, human IgG1 constant regions) VH: EVQLVESGGGLVQPGGSLRLSCAASGFTFSSFGMHWVRQAPGKGLEWVAYITSGANTIYYADTVKGRFTISRDNAKNSLYLQMNSLRAEDTAVYYCAREYYSYDEGFAYWGQGTLVTVSS VL: EIVLTQSPATLSLSPGERATLSCSVSSSISSNYLHWYQQKPGQAPRLLIYRTSNLASGIPARFSGSGSGTDFTLTISSLEPEDFAVYYCQQGVDVPFTFGQGTKLEIKR | 1.01 µg/mL | 1.54 µg/mL | 1.37 nM | 0.0012 s⁻¹ | 878000 M⁻¹ s⁻¹
hz8C8-VHm5 + hz8C8-VLm7 (antibody, human IgG1, kappa, V domains shown, human IgG1 constant regions) VH: EVQLVESGGGLVQPGGSLRLSCAASGFTFSSFGMSWVRQAPGKGLEWVAYITPGSNTIYYADTVKGRFTISRDNAKNSLYLQMNSLRAEDTAVYYCAREYYSYDEGFAYWGQGTLVTVSS VL: EIVLTQSPATLSLSPGERATLSCSVSDLIPSQYLHWYQQKPGQAPRLLIYRTSNLASGIPARFSGSGSGTDFTLTISSLEPEDFAVYYCQQGVDVPFTFGQGTKLEIKR | 0.65 µg/mL | 0.01 µg/mL | 0.19 nM | 0.000175 s⁻¹ | 920000 M⁻¹ s⁻¹
